# Reference: paper PMC4773402, “Comparison of the aggregation of homologous β2-microglobulin variants reveals protein solubility as a key determinant of amyloid formation” (Journal of Molecular Biology, 2016)
# B1: mouse β2-microglobulin (natural protein, UniProt P01887 21-119, looked up)
# chain: IQKTPQIQVYSRHPPENGKPNILNCYVTQFHPPHIEIQMLKNGKKIPKVEMSDMSFSKDWSFYILAHTEFTPTETDTYACRVKHASMAEPKTVYWDRDM
# notes: β2-microglobulin, mouse; In the AUC the protein was acid-unfolded at pH 2.5; also called mβ2m; source: expressed and prepared as described previously [47]; purified (anion exchange at pH 8.5, gel filtration), lyophilised
# Target: the molecule itself
# Assay: AUC; sedimentation velocity, 25 °C, 48,000 rpm, 50 μM protein, pH 2.5 buffer with 0.3 M NaCl, absorbance at 280 nm, SEDFIT
protein,measurement,value
B1,binding result,binds
